Results: patent US20190177370A1 (TOKYO UNIVERSITY OF PHARMACY AND LIFE SCIENCES, published 2019)
Square brackets hold non-standard residues; d marks the D form. Primed or numbered codes have the meaning given here. * marks the point of attachment. m‑dPEG(4)″ = m-dPEG(4) acid, coupled to Acp (R^111 group of Formula (4)), COCCOCCOCCOCCC(=O)*; m‑dPEG(4) = m-dPEG(4) acid, coupled to Acp, with Acp forms R^111 of Formula (4); Propanoyl(3,3-Ph2) = O=C(CC(c1ccccc1)c1ccccc1)*; 2Nal = N[C@@H](Cc1ccc2ccccc2c1)C(=O)O; Chg = N[C@H](C(=O)O)C1CCCCC1; R^118 = not defined here; Ahx = NCCCCCC(=O)O

Target: T1, myostatin (UniProt O14793 267-375, limits assumed)
T1 sequence (looked up): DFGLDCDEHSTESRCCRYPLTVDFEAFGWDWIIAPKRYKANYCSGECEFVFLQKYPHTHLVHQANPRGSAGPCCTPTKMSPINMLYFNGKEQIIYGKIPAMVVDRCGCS
Assay: cell-based or functional assay

Binder	myostatin inhibitory activity at 0.3 µM (luciferase reporter assay)	myostatin inhibitory activity at 1 µM (luciferase reporter assay)	other results
H-WYIRWIP[Chg]QIWSR[Chg]RL-NH2 (SMILES CC[C@H](C)[C@H](NC(=O)[C@H](CCC(N)=O)NC(=O)[C@@H](NC(=O)[C@@H]1CCCN1C(=O)[C@@H](NC(=O)[C@H](Cc1c[nH]c2ccccc12)NC(=O)[C@H](CCCNC(=N)N)NC(=O)[C@@H](NC(=O)[C@H](Cc1ccc(O)cc1)NC(=O)[C@@H](N)Cc1c[nH]c2ccccc12)[C@@H](C)CC)[C@@H](C)CC)C1CCCCC1)C(=O)N[C@@H](Cc1c[nH]c2ccccc12)C(=O)N[C@@H](CO)C(=O)N[C@@H](CCCNC(=N)N)C(=O)N[C@H](C(=O)N[C@@H](CCCNC(=N)N)C(=O)N[C@@H](CC(C)C)C(N)=O)C1CCCCC1) [nPDM-77]	≥ 40 % inhibition	–	–
{Propanoyl(3,3-Ph2)}-YIRWIR[Chg]QIWSR[Chg]PL-NH2 (SMILES CC[C@H](C)[C@H](NC(=O)[C@H](Cc1ccc(O)cc1)NC(=O)CC(c1ccccc1)c1ccccc1)C(=O)N[C@@H](CCCNC(=N)N)C(=O)N[C@@H](Cc1c[nH]c2ccccc12)C(=O)N[C@H](C(=O)N[C@@H](CCCNC(=N)N)C(=O)N[C@H](C(=O)N[C@@H](CCC(N)=O)C(=O)N[C@H](C(=O)N[C@@H](Cc1c[nH]c2ccccc12)C(=O)N[C@@H](CO)C(=O)N[C@@H](CCCNC(=N)N)C(=O)N[C@H](C(=O)N1CCC[C@H]1C(=O)N[C@@H](CC(C)C)C(N)=O)C1CCCCC1)[C@@H](C)CC)C1CCCCC1)[C@@H](C)CC) [3,3-diphenylpropionyl-nPDM-85]	≥ 40 % inhibition	–	–
{m‑dPEG(4)″-Ahx}-[2Nal]YIEWIKIQIISKLRL-NH2 (SMILES CC[C@H](C)[C@H](NC(=O)[C@H](Cc1ccc(O)cc1)NC(=O)[C@H](Cc1ccc2ccccc2c1)NC(=O)CCCCCNC(=O)CCOCCOCCOCCOC)C(=O)N[C@@H](CCC(=O)O)C(=O)N[C@@H](Cc1c[nH]c2ccccc12)C(=O)N[C@H](C(=O)N[C@@H](CCCCN)C(=O)N[C@H](C(=O)N[C@@H](CCC(N)=O)C(=O)N[C@H](C(=O)N[C@H](C(=O)N[C@@H](CO)C(=O)N[C@@H](CCCCN)C(=O)N[C@@H](CC(C)C)C(=O)N[C@@H](CCCNC(=N)N)C(=O)N[C@@H](CC(C)C)C(N)=O)[C@@H](C)CC)[C@@H](C)CC)[C@@H](C)CC)[C@@H](C)CC) [PDM-31]	–	≥ 40 % inhibition	–
{R^118}-RQNTRYSRIEWIKIQIISKLRL-NH2 (reading uncertain; also: N-terminal R118 group (Formula 11) structure not given here, printed as R118-RQNTRYSRIEWIKIQIISKLRL-NH2) [3d]	–	–	IC50 of the myostatin inhibitory activity (luciferase reporter assay, 0.016 to 2 µM): 273 nM
{m‑dPEG(4)-Ahx}-FYIEWIKIQIISKLRL-NH2 [PDM-32]	–	≥ 40 % inhibition	–
